T1: GCN4-SUN2 C705A (His6-GCN4 fusion of SUN2 522–717 C705A) (human, UniProt Q9UH99 522-717, C705A)
T1 construct: SUN2, human, SUN domain, residues 522-717, C705A; The GCN4 tag is a trimerising tag (Sosa et al., 2012); not shown: His6, N-terminal, kept; GCN4, N-terminal, kept
T1 sequence (looked up): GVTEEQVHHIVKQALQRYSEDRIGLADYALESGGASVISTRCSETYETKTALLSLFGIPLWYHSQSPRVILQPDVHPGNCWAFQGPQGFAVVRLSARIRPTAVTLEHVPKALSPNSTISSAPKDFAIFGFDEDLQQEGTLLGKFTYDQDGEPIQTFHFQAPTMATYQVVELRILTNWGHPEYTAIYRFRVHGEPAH

B1: MBP-KASH1 (His6-MBP fusion of the KASH domain of human Nesprin-1, residues 8769–8797) (domain or fragment)
chain: not shown
notes: Nesprin-1, human, C-terminal KASH domain, residues 8769-8797
B2: MBP-KASH5 (His6-MBP fusion of the KASH domain of human KASH5, residues 542–562) (domain or fragment, UniProt Q8N6L0 542-562, looked up)
chain: GPSPPPTWPHLQLCYLQPPPV
notes: KASH5, human, C-terminal KASH domain, residues 542-562
B3: GCN4-SUN1 (His6-GCN4 fusion of the SUN domain of human SUN1, residues 616–812), wild-type (domain or fragment)
chain: GITEAQARAIVNSALKLYSQDKTGMVDFALESGGGSILSTRCSETYETKTALMSLFGIPLWYFSQSPRVVIQPDIYPGNCWAFKGSQGYLVVRLSMMIHPAAFTLEHIPKTLSPTGNISSAPKDFAVYGLENEYQEEGQLLGQFTYDQDGESLQMFQALKRPDDTAFQIVELRIFSNWGHPEYTCLYRFRVHGEPVK
B4: MBP-KASH4 (His6-MBP fusion of the KASH domain of human Nesprin-4, residues 376–404) (domain or fragment, UniProt Q8N205 376-404, looked up)
chain: ASGGPCCSHARIPRTPYLVLSYVNGLPPV
notes: Nesprin-4, human, C-terminal KASH domain, residues 376-404
B5: GCN4-SUN2 (His6-GCN4 fusion of the SUN domain of human SUN2, residues 522–717), wild-type (domain or fragment, UniProt Q9UH99 522-717, looked up)
chain: T1 sequence (looked up) with A184C
notes: SUN2, human, SUN domain, residues 522-717; The GCN4 tag is a trimerising tag (Sosa et al., 2012); not shown: His6, N-terminal, kept; GCN4, N-terminal, kept
B6: KASH5 (construct not told; unpublished findings) (natural protein, human, UniProt Q8N6L0 1-562, looked up)
chain: MDLPEGPVGGPTAEMYLRERPEEARLGMPVSLEEQILNSTFEACDPQRTGTVAVAQVLAYLEAVTGQGPQDARLQTLANSLDPNGEGPKATVDLDTFLVVMRDWIAACQLHGGLELEEETAFQGALTSRQLPSGCPEAEEPANLESFGGEDPRPELQATADLLSSLEDLELSNRRLVGENAKLQRSMETAEEGSARLGEEILALRKQLHSTQQALQFAKAMDEELEDLKTLARSLEEQNRSLLAQARQAEKEQQHLVAEMETLQEENGKLLAERDGVKKRSQELAMEKDTLKRQLFECEHLICQRDTILSERTRDVESLAQTLEEYRVTTQELRLEISRLEEQLSQTYEGPDELPEGAQLRRVGWTELLPPSLGLEIEAIRQKQEVATADLSNPLCGVWQWEEVIHETSEETEFPSEAPAGGQRNFQGEPAHPEEGRKEPSMWLTRREEEEDAESQVTADLPVPLGAPRPGDIPENPPERPARRELQQALVPVMKKLVPVRRRAWGQLCLPPQRLRVTRHPLIPAPVLGLLLLLLLSVLLLGPSPPPTWPHLQLCYLQPPPV
notes: KASH5, human; Told only as 'KASH5 is dimeric (Gurusaran and Davies, unpublished findings)'

Series [1] concerns the target B3. Put plainly: SEC-MALS; co-expressed and co-purified samples at >1 mg/ml on Superdex 200 Increase 10/300 GL in 20 mM Tris pH 8.0, 150 mM KCl, 2 mM DTT. The note with it: both partners purified.
In series [2] the target is T1, GCN4-SUN2 C705A (His6-GCN4 fusion of …). The description is as above. The conditions noted are these: both partners purified.
Series [3] concerns the molecule itself. The series is described as above.
Series [4] deals with B5. The description is as above. The conditions noted are these: both partners purified.
Series [5] concerns the molecule itself. Put plainly: not stated; unpublished findings (Gurusaran and Davies).

Residue numbers refer to the chain shown, from its start.

Regarding B1, the “stoichiometry N” value in series [1] and in series [2] was 1 binder:target ratio (6:6) each time.

For the molecule B2, in series [1], the stoichiometry N (usually a count of units in the complex or per binding partner) is 1 binder:target ratio (6:6).

Regarding B3, in series [3], the “stoichiometry N” value came to 3.

Consider B4, for which the “stoichiometry N” value in series [1] and in series [4] was 1 binder:target ratio (6:6) throughout.

Take B5: the “stoichiometry N” value in series [3] stood at 3.

On to B6, for which, in series [5], the “stoichiometry N” value is 2.

The record behind these values is PMC7800377, “A molecular mechanism for LINC complex branching by structurally diverse SUN-KASH 6:6 assemblies” (eLife, 2021).
